The koff is the first-order rate constant of dissociation. Low readings indicate slow dissociation, high ones fast dissociation.

This is an account of results in patent US10435668.

In experiment [1] the target is 2C T cell receptor on CD8+ T cells of 2C TCR transgenic mice (mouse). Nature of the experiment: estimated from dissociation data, activated 2C T cells.
For experiment [2] the target is unchanged. In words: flow cytometry off-rate assay on naive 2C T cells, APC-labeled MHC-Ig, 1B2 added to prevent re-binding, exponential fit. In general terms: In flow cytometry, cells or beads pass a laser one at a time.
Experiment [3] has the same target. In words: flow cytometry off-rate assay on naive 2C T cells, derived from off-rate.
Experiment [4] has the same target. Nature of the experiment: flow cytometry off-rate assay on activated 2C T cells, derived from off-rate.
Experiment [5] has the same target. Nature of the experiment: estimated from dissociation data, naive 2C T cells; one contact is assumed for the dimer on naive cells.
For experiment [6] the target is unchanged. Nature of the experiment: flow cytometry off-rate assay on activated 2C T cells, APC-labeled MHC-Ig, 1B2 added to prevent re-binding, exponential fit.
The target is the same in experiment [7]. Nature of the experiment: flow cytometry off-rate assay on activated 2C T cells, APC-labeled nanoparticles bearing K^b-SIY alone, 1B2 added to prevent re-binding, exponential fit.
For experiment [8] the target is unchanged. Nature of the experiment: equilibrium particle binding assay, flow cytometry, activated against naive T cells.
Experiment [9] shares this target. Nature of the experiment: flow cytometry, Alexa 647 labeled particles bound to activated 2C T cells (seven days after peptide activation).
For experiment [10] the target is unchanged. In words: flow cytometry off-rate assay on naive 2C T cells, APC-labeled nanoparticles bearing K^b-SIY alone, 1B2 added to prevent re-binding, exponential fit.
The target in experiment [11] is pmel T cell receptor on CD8+ T cells of pMEL TCR transgenic mice (mouse) (UniProt Q60696). In words: flow cytometry, Alexa 647 labeled particles on control non-cognate CD44lo pmel T cells.
Experiment [12] concerns the target 2C T cell receptor on CD8+ T cells of 2C TCR transgenic mice (mouse). In words: estimated from dissociation data, activated cells (12.6 contacts).
Experiment [13] shares this target. Nature of the experiment: estimated from dissociation data, naive cells (6.8 contacts).
Experiment [14] has the same target. In words: off-rate assay, flow cytometry, activated against naive T cells.
For experiment [15] the target is unchanged. Nature of the experiment: estimated from dissociation data, naive 2C T cells.
For experiment [16] the target is unchanged. In words: flow cytometry, Alexa 647 labeled particles bound to naive CD44lo 2C T cells.

Chain of UniProt Q60696 (Q60696 whole entry): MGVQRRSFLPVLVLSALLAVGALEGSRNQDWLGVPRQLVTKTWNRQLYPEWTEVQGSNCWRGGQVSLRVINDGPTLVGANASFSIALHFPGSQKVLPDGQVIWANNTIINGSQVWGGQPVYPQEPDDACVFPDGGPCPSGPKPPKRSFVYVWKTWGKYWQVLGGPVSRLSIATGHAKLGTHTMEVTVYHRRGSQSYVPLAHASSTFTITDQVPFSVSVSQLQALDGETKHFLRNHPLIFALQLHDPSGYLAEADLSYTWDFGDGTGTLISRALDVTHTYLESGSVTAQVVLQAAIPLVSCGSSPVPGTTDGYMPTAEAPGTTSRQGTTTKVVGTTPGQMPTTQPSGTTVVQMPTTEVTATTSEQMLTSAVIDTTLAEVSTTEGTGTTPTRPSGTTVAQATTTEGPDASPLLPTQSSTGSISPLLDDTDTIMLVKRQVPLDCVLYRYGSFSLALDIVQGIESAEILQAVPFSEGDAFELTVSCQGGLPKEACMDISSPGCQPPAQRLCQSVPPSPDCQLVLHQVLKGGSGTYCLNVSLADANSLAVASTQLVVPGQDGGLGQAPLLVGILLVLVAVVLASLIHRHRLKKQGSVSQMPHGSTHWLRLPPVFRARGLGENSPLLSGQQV

In the case of “K^b-SIY MHC-Ig dimer (soluble K^b-Ig loaded with SIY peptide) (from UniProt P01901 22-305) (peptide-MHC)”, the TCR-MHC Contacts in experiment [1] is 1.7 contacts; in experiment [5], 1 contacts. For the same substance, the koff in experiment [2] was 0.0089 s⁻¹; in [6], 0.0052 s⁻¹. For the same substance, the results for the Half-Life in experiment [3] and in experiment [4] were 1.3 min and 1.87 min, respectively.

Regarding “Nanoparticles bearing K^b-SIY MHC-Ig alone (iron-dextran nanoparticle, no anti-CD28) (from UniProt P01901 22-305) (peptide-MHC)”, the koff came out at 0.0009 s⁻¹ in experiment [7] and 0.002 s⁻¹ in [10]. Further, the fold fewer nanoparticles bound at equilibrium by activated than by naive cells in experiment [8] stood at 2 fold. Besides, the TCR-MHC Contacts is 12.6 contacts in experiment [1] and 6.8 contacts in experiment [15]. Further, the MFI was 89 MFI in experiment [9], 21 MFI in experiment [11] and 179 MFI in experiment [16]. For the same substance, the Half-Life in experiment [3] stood at 8.85 min; in experiment [4], 16.4 min. The percent of MHC-Ig dimers on the particle surface in TCR-MHC contacts in [12] was 22%; in [13], 11%. The fold slower disassociation from activated than from naive cells in experiment [14] is 2 fold.
